Data published in patent publication US20260132200A1.
pEC50: −log10 of the molar value. Like-named read-outs stand apart in the source and are kept apart here. Each block holds one substance with its values, some of them ahead of it.

How the values were obtained:
[1] = target: human CD20 expressed on Raji cells (CD3-, CD20+ human B-cell line) (human) (UniProt P11836); assay: cell-based or functional assay
[2] = target: human CD3 expressed on cells (Jurkat, a CD3+ human T-cell line; human T cells) (human) (UniProt P07766); assay: cell-based or functional assay
[3] = target: human CD3 expressed on cells (Jurkat, a CD3+ human T-cell line; human T cells) (human) (UniProt P07766); assay: cell-based or functional assay; remark: listed apart in the source
[4] = target: cynomolgus monkey CD3 on monkey T cells (CD2+CD4+ cells of cynomolgus PBMCs) (cynomolgus monkey) (UniProt Q95LI5); assay: FACS on monkey PBMCs, CD2+CD4+ T cells
Chain of cynomolgus monkey CD3 on monkey T cells (CD2+CD4+ cells of cynomolgus PBMCs) (cynomolgus monkey) (Q95LI5 22-198): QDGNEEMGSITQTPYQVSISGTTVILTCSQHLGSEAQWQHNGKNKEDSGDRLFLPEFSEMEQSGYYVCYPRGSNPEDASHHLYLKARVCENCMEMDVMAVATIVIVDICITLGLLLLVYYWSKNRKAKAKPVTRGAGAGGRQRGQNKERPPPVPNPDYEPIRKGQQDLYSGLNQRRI

[5] = target: cynomolgus monkey CD3 on monkey T cells (CD2+CD4+ cells of cynomolgus PBMCs) (cynomolgus monkey) (UniProt Q95LI5); assay: FACS on cynomolgus PBMCs, CD2+CD4+ T cells

Chain of human CD20 expressed on Raji cells (CD3-, CD20+ human B-cell line) (human) (P11836 whole entry): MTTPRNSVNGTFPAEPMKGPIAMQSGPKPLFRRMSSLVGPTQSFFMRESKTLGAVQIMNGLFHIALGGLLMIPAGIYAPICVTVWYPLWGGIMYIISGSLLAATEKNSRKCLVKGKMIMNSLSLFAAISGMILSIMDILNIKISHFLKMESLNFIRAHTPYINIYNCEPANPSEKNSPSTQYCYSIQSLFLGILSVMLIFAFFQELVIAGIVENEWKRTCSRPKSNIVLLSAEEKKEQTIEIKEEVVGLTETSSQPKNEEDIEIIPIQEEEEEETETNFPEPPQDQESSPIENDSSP

- CDC EC50, Raji [1]: 96.6 pM
- CDC EC50, Raji SCID1 [1]: 85600 pM
- CDC EC50, Raji SCID2 [1]: 58.7 pM
- CDC EC50, Raji SCID3 [1]: 25500 pM
- CDC EC50, Raji SCID4 [1]: 5290 pM
Substance: Control III: anti-CD20 therapeutic antibody with heavy and light chain sequences of Rituxan (Rituximab)

Substance: OKT-3, mouse monoclonal antibody against human T-cell surface antigens (ATCC CRL-8001)
- U937 Cytotoxicity Human T-cells [M] (EC50) [2]: 2.35e-12 M
- U937 Cytotoxicity Human T-cells [M] (EC50) [3]: 3.04e-12 M

- pEC50 [4]: 10.15
- pEC50 [5]: 10.15
Substance: SP34, mouse monoclonal antibody reactive against the epsilon chain of the T3 complex on human T lymphocyte cells
